B1: 8-151 (ssRNA)
RNA: GGGAGGACGAUGCGGAGGACUAAUCCCUAAGGAAUAGCUUGCCCGCAGACGACUCGCCCGA
modifications: 2'-F pyrimidines
B2: 10-56 (ssRNA)
RNA: GGGAGAUAAGAAUAAACGCUCAACCUUAGGGCUCCCAAAAAUCGGGCCCGUCGGGCCGAUCACUUCGACAGGAGGCUCACAACAGGC
modifications: 2'-F pyrimidines
B3: 10-38 (ssRNA)
RNA: GGGAGAUAAGAAUAAACGCUCAAUCUGCGGACGGUGAGGUUAAGUUGCAACGACUGCUUGGCGUUCGACAGGAGGCUCACAACAGGC
modifications: 2'-F pyrimidines
B4: 10-35 (ssRNA)
RNA: GGGAGAUAAGAAUAAACGCUCAAAUCCAAAUUCUGGUCAUGAGGCGCUGCAGAUACUGCUGCGUUCGACAGGAGGCUCACAACAGGC
modifications: 2'-F pyrimidines
B5: 10-4 (ssRNA)
RNA: GGGAGAUAAGAAUAAACGCUCAAUUGGGUCGGGACUCGAAAGGAUUUGAUAGGAUACAUGAAUUUCGACAGGAGGCUCACAACAGGC
modifications: 2'-F pyrimidines
B6: 10-67 (ssRNA)
RNA: GGGAGAUAAGAAUAAACGCUCAAUCGGGCUUGGAUGUGGACGUGUAUUUCUAGCUGUGUACGCUUCGACAGGAGGCUCACAACAGGC
modifications: 2'-F pyrimidines
B7: 10-68 (ssRNA)
RNA: GGGAGAUAAGAAUAAACGCUCAACGCGGGAUUCUCUGAGGACGAGGCACGUGUGGGUAAUUCGUUCGACAGGAGGCUCACAACAGGC
modifications: 2'-F pyrimidines
B8: 7c-1 (ssRNA)
RNA: GGGAGGACGAUGCGGUUUGACUAUGUCUGACGGGUCUGUGGUCAAUUCCGCCCCCAGACGACUCGCCCGA
modifications: 2'-F pyrimidines
B9: 10-17 (ssRNA)
RNA: GGGAGAUAAGAAUAAACGCUCAAAACCCUGUUGGCGUGACGUCCCGACCCUCCUUCGACAGGAGGCUCACAACAGGC
modifications: 2'-F pyrimidines
B10: 8-117 (ssRNA)
RNA: GGGAGGACGAUGCGGUCCCAAGUUUCAGGGCGUUUCUUCCUCGUCCAGACGACUCGCCCGA
modifications: 2'-F pyrimidines
B11: 11-106 (ssRNA)
RNA: GGGAGGACGAUGCGGCGAUGAUGCCUGUUUAUGUCGAUGUCCCCCCAGACGACUCGCCCGA
modifications: 2'-F pyrimidines

This is an account of results in US6344321, “Nucleic acid ligands which bind to hepatocyte growth factor/scatter factor (HGF/SF) or its receptor c-met” (Gilead Sciences, Inc.).

As a reminder, the Kd is the concentration at which binding is half-saturated. Read a high Kd as weaker binding.

In one data set the target is T1, HGF (hepatocyte growth factor/scatter factor) (UniProt P14210;P14210 P14210:32-494,P14210:495-728). Kind of data set: filter; one or two 5' G; no inhibition of HGF in cells without PEG. The settings on record: tags: R&D Systems. As to the method: (§1) In binding reactions, RNA concentrations were kept as low as possible—between 1 and 20 pM—to ensure equilibrium in conditions of protein excess. Oligonucleotides were incubated for 15 minutes at 37° C. with varying amounts of the protein in 43 µl of the binding buffer. Thirty-two microliters of each binding mixture placed on pre-wet 0.45 µm nitrocellulose filters under suction. Each well was immediately washed with 0.5 ml binding buffer. The amount of radioactivity retained on the filters was quantitated by imaging. The radioactivity that bound to filters in the absence of protein was used for background correction. The percentage of input oligonucleotide retained on each filter spot was plotted against the corresponding log protein concentration. The nonlinear least square method was used to obtain the dissociation constant (K_d; reference Jellinek, Lynott et al. 1993, Proc. Natl. Acad. Sci. USA. 90:11227–31).
T1 sequence (P14210 32-494, chain 1 of 2): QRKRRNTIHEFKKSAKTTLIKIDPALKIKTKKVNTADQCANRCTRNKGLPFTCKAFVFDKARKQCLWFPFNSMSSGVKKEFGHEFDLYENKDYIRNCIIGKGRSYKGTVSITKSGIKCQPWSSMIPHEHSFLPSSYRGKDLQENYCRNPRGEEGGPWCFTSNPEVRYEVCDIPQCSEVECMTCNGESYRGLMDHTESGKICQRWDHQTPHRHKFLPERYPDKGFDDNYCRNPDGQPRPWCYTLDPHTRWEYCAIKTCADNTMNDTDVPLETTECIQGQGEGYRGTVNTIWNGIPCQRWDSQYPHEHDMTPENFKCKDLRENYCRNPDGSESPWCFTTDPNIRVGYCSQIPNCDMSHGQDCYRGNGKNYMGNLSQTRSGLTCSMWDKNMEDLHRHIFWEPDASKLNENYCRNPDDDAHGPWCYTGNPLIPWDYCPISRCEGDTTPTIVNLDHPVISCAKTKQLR
T1 sequence (P14210 495-728, chain 2 of 2): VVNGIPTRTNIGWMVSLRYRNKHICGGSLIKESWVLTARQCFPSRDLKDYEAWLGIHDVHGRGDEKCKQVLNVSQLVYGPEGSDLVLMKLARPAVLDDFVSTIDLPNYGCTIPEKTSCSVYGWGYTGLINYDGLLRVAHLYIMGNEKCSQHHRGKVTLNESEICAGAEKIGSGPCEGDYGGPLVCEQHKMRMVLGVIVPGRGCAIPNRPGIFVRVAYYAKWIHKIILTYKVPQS
Molecule GGAAUCACAGGAAUCAACUUCUAUUCCCGCCCCA (ssRNA, 2'-F pyrimidines) [Tr51] showed a Kd of 0.06 nM.

For the next data set, the target named is T1, HGF (hepatocyte growth factor/scatter …). Kind of data set: filter; 36mer; PEGylated form inhibits HGF in cells. To be noted: tags: R&D Systems. As to the method:
as §1
GGACGAUGCGGCGAGUGCCUGUUUAUGUCAUCGUCC (ssRNA, 2'-F pyrimidines; NX22354 formulation carries 5'-40K PEG and 3'-dT cap) [NX22354 (36mer of 8-102)] yielded a Kd of 0.1 nM.

A further data set has the same target. Kind of data set: filter; HBSMC, 37C; worse than random pool. To be noted: tags: R&D Systems. As to the method: as §1
Molecule B1 yielded a Kd of 8 nM.

The target is the same in another data set. Kind of data set: filter; 40N8 hitchhiker. To be noted: tags: R&D Systems. As to the method:
as §1
In turn, B2 had a Kd of 0.28 nM.

B3 displayed a Kd of 7.38 nM. On to B4, for which the Kd came out at 2.33 nM. Same read-out and setting: then B5, with 0.61 nM.

Molecule B6 displayed an equilibrium dissociation constant (Kd) of 0.64 nM. The Kd values of the last two molecules are within 1.5-fold of each other.

Molecule B7 returned a Kd of 1 nM.

For the next data set, the target named is c-met extracellular domain-IgG1-His6 (Homo sapiens, UniProt P08581 P08581:25-932). As to the kind of experiment: filter; biphasic; lower affinity Kd ~5 nM. To be noted: chain copies: 2.
Chain of c-met extracellular domain-IgG1-His6 (P08581 25-932, one chain of several): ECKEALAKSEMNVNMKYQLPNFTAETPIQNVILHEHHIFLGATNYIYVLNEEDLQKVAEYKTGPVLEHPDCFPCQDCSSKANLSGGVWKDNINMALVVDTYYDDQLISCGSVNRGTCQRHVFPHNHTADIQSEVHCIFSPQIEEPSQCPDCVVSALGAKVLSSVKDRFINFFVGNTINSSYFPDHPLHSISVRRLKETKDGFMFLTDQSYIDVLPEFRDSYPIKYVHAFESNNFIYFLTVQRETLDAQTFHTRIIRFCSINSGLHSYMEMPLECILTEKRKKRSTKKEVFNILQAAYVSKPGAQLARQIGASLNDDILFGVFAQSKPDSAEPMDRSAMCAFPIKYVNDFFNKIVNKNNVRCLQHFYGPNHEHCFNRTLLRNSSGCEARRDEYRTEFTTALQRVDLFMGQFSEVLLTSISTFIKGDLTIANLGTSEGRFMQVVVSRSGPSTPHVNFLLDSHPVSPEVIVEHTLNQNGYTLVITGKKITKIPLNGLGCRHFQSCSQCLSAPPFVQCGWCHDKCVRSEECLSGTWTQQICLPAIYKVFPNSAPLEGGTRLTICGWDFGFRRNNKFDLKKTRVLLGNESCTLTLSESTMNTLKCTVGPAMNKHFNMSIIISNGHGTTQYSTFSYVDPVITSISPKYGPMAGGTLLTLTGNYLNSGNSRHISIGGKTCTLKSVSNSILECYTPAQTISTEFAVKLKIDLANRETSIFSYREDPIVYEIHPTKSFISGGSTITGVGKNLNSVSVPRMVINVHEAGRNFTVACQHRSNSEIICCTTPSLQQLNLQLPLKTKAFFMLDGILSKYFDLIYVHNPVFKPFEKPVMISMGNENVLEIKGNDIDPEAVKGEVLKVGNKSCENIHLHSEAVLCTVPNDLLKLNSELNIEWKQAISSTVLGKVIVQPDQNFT
With B8, the Kd was ~0.05 nM.

The target in another data set is T1, HGF (hepatocyte growth factor/scatter …). Kind of data set: filter; one or two 5' G. The settings on record: tags: R&D Systems. As to the method: as §1
Consider GGUGGGAACCUAUUUAUGUCAUCUCCGUCCCCA (ssRNA, 2'-F pyrimidines) [Tr45], for which the Kd is 1.7 nM.

The molecule GGGGUGACCCUUUUUAUGACAUCGCGUCUGGCCA (ssRNA, 2'-F pyrimidines) [Tr28] displayed a dissociation constant Kd of 4 nM. Against the preceding molecule, the Kd is about 2.4-fold higher.

Molecule GGACAGUUUGUCUUCUAUAGCUCGUCGCCCCCA (ssRNA, 2'-F pyrimidines) [Tr59] came in with a Kd of 7.2 nM. Same read-out and setting: then GGUGGGAACCUAUUUAUGUCAUCGUCUGUGCCCA (ssRNA, 2'-F pyrimidines) [Tr70], with 2.4 nM. On the same count and under the same terms, the value for GGUGAAUUCCUCUGGCUGAAAAUGACUUGUGCCA (ssRNA, 2'-F pyrimidines) [Tr31] was 9.2 nM. On the same count and under the same terms, then GGCGGUGUGAACCUGUUUAUGUCCGCGUACCCCA (ssRNA, 2'-F pyrimidines) [Tr7], with 0.67 nM.

On to GGUGAUCACCUGUUUAUGCCAUCGUUCUGGGCCA (ssRNA, 2'-F pyrimidines) [Tr48], for which binding was put at a Kd of 1.8 nM. Compared with the last molecule, the Kd is about 2.7-fold higher. Consider GGUGAUAACCUAUUUAUGACGUCGUGGCUCCCCA (ssRNA, 2'-F pyrimidines) [Tr42], for which the Kd was 6.1 nM. Against the preceding molecule, the Kd is about 3.4-fold higher. GGGUUUGAGUGACGAUCGUCUUGUCCCAUGUGCA (ssRNA, 2'-F pyrimidines) [Tr15] displayed a Kd of 8.8 nM.

As to GGGUGACUCAAAAUGGUGAUCCUCGUUUCCGCCA (ssRNA, 2'-F pyrimidines) [Tr4], binding was characterised by a dissociation constant (Kd) of 1.4 nM. Still for that read-out and setting: then GGCAGACGACUCGCCCGAAGGACGAUGCGGCA (ssRNA, 2'-F pyrimidines) [Tr5], with 28 nM. Consider GGUCAGAAUGACUUUCAUAGCUCGCUUUCCCCCA (ssRNA, 2'-F pyrimidines) [Tr71], for which the dissociation constant Kd amounted to 7.7 nM. As to GGAUUGAUUCACUGCAUCCUUGACUCUUCCCCCA (ssRNA, 2'-F pyrimidines) [Tr1], the equilibrium dissociation constant (Kd) worked out at 7.3 nM. This Kd and that of the molecule before are within 1.5-fold of each other. Same read-out and setting: then GGGAGUUAUAUUUCGUCACCCGUUCCUUUGCCCCA (ssRNA, 2'-F pyrimidines) [Tr14], with 2.2 nM; and GGUGUGAACCUGUUUAUGCCAUCUCGAGUCCCCA (ssRNA, 2'-F pyrimidines) [Tr20], with 3.4 nM. Same read-out and setting: the value for GGCGUGAGCCUAUUUAUGUCAUCAUGUCUGUGCA (ssRNA, 2'-F pyrimidines) [Tr6] was 9 nM; that for GGGCGGCUCGAUGUCGUCUUAUCCCUUUGCCCCA (ssRNA, 2'-F pyrimidines) [Tr17] was 3 nM.

The target is the same in another data set. Kind of data set: filter; HBSMC, 37C; SEQ 108 in listing duplicates SEQ 107, table sequence used. The settings on record: tags: R&D Systems. The protocol: as §1
B9 gave a Kd of 0.56 nM.

The next data set shares this target. Kind of data set: filter; HBSMC, 37C; table cites SEQ 15, which is a template in the listing. The settings on record: tags: R&D Systems. As to the method:
as §1
The molecule B10 came in with a Kd of 0.13 nM.

Another data set has the same target. As to the kind of experiment: filter; no significant binding retained. The settings on record: tags: R&D Systems. As to the method:
as §1
For the molecule GGACGAUGCGGGCGGCUCGAUGUCGUCU (ssRNA, 2'-F pyrimidines) [8-17 28mer], the binding result is reported as “no binding”.

With GGGAGGACGAUGCGGGCGGCUCGAUGUCGUCUUAUCCC (ssRNA, 2'-F pyrimidines) [8-17 38mer], the binding result is “no binding”.

The next data set shares this target. Kind of data set: filter; HBSMC, 37C; SEQ 43 in listing has a deviating 3' end. To be noted: tags: R&D Systems. As to the method: as §1
B11 displayed a Kd of 0.12 nM.
